From patent US20030157712A1, “Methods for determining cell responses through EphB receptors” (priority 1997, published 2003)

T1: EphB1 (Homo sapiens, UniProt P54762)
T1 construct: Ligand stimulation and immunoprecipitation of endogenous EphB receptors; endogenous in cells; host or cells: HRMEC (human); P19 (murine teratocarcinoma) in part of the results
T1 sequence (P54762 18-984): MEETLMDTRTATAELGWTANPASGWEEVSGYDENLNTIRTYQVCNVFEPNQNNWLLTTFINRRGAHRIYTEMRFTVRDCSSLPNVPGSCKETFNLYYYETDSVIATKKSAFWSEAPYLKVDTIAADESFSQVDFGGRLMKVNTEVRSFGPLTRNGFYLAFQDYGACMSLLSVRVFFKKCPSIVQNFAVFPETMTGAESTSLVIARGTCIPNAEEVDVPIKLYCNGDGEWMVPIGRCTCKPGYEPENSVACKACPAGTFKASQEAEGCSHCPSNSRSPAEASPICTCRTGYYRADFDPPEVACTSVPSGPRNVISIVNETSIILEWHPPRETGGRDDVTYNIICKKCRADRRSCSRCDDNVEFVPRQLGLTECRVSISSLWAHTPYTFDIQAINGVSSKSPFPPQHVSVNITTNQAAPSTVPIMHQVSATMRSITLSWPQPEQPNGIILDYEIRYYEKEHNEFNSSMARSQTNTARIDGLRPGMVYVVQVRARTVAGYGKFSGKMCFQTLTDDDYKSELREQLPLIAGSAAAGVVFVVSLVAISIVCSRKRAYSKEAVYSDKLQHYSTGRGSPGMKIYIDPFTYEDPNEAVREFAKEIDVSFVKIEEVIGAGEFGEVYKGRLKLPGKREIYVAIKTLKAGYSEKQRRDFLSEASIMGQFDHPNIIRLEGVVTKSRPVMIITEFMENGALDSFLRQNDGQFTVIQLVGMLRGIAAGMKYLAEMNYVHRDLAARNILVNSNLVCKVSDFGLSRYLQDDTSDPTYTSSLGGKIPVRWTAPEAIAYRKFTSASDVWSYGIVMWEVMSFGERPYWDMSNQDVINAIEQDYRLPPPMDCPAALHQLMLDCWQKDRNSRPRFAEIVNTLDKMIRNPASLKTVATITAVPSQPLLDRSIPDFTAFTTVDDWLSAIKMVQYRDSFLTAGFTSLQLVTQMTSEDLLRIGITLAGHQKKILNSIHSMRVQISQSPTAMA


Legend:
[1] = test system: HUVEC; conditions: background art; cited from earlier work
[2] = test system: HRMEC; conditions: background art; cited from earlier work
[3] = test system: α5β1 integrin; assay: Surface biotinylation and integrin immunoprecipitation (HEK293); assay type: cell-based, human; conditions: 60 min on coated dishes
Experimental: (§1) Surface biotinylation and integrin immunoprecipitation. To determine if surface integrin expression was altered by transfection and/or exposure to ephrinB1/Fc, cells were biotinylated for 30 min at 4° C. with 0.5 mg/ml Sulfo-NHS-LC-Biotin (Pierce, Rockford, Ill.) before plating onto 60 mm dishes coated with nitrocellulose, fibrinogen and EphrinB1/Fc. After a 60 min incubation at 37° C., cells were harvested in WG buffer (15) and immunoprecipitation performed with 2 ug of the integrin antibodies used in the competition experiments. After SDS-PAGE (non-reducing conditions) and Western blotting, biotinylated proteins were detected by enhanced chemiluminescence using ECL Western Blotting Detection (Amersham).

[4] = test system: HRMEC; assay: Endothelial assembly into capillary-like structures (HRMEC); assay type: cell-based, human; conditions: Matrigel-coated surfaces, defined medium; vascular bed comparison
Experimental: Endothelial assembly into capillary-like structures. Twelve well plates (Falcon) were coated with thin layers of Matrigel. HRMEC were plated at a density of 4×10^4 cells/well in DME containing 1% fetal bovine serum. Indicated agonists, control peptides, alone, or in combination with the EphB1/Fc antagonist (1000 ng ml^−1) (FIG. 5) were added at the time of plating. Cells were incubated at 37° C. for 8 h and photographed using phase microscopy (magnification 100×) (Diaphot-TMD, Nikon).

[5] = test system: HEK293 cells; assay: Solid phase cell attachment assay (HEK293); assay type: cell-based, human
Experimental: Cell culture and transfection. Human embryonic kidney cells, HEK293, were passaged in minimum essential medium (Life Technologies) supplemented with 10% fetal bovine serum (Hyclone Laboratories, Logan, Utah). HRMEC were cultured as described (12). HEK293 cells were transfected with Lipofectamine Plus (Life Technologies) as described by the manufacturer. The expression constructs pSRα-hEphB1-HA, pSRα-hEphB1-HA-K652R, pSRα-hEphB1-HA-Y596F and pSRα-hEphB1-HA-Y929F have been described previously (45,46). Cell attachment assays were performed 48 hours after transfection.
Solid phase cell attachment assays. Forty-eight-well plates (Falcon) were coated with a layer of nitrocellulose (Schleicher & Schuell) and allowed to air dry as described (47). Coated wells were incubated overnight at 4° C. with PBS containing matrix proteins at the indicated concentrations alone (no addition, NA) or in combination with dimeric EphrinB1/Fc. Two hours prior to assay, wells were washed twice then blocked at 37° C. with 1% BSA. Serum starved cells were harvested in 2 mM EDTA in PBS (HEK293) or recovered by trypsinization (HRMEC), washed twice in serum free medium containing 1% BSA, then plated at a density of 0.7-1×10^5 cells per well. […] Adherent cells were fixed with 2% glutaraldehyde, stained with 0.5% crystal violet (in EtOH), and quantified by OD reading at 570 nm. […]

[6] = test system: αvβ3 integrin; assay: Surface biotinylation and integrin immunoprecipitation (endothelial cells); assay type: cell-based, human; conditions: 60 min on coated dishes
Experimental: as §1

[7] = molecular target: T1, EphB1; assay: EphB1 immunoprecipitation and phosphotyrosine immunoblot; assay type: cell-based; conditions: in each cell type (HRMEC, HUVEC)
[8] = test system: HUVEC; assay: Two dimensional capillary-like assembly assay (HUVEC); assay type: cell-based, human; conditions: Matrigel-coated surfaces, defined medium; vascular bed comparison
Experimental: (§2) For these studies, HRMEC or HUVEC were plated on Matrigel-coated surfaces in defined medium in a two dimensional capillary-like assembly assay. Ephrin-B1 promoted capillary-like assembly of HRMEC, but not HUVEC, while ephrin-A1 promoted assembly of HUVEC but not HRMEC, in identical media at concentrations appropriate for their respective affinities for EphB1 and EphA2. In each cell type, ephrin-B1 and ephrin-A1 promoted tyrosine phosphorylation of 130 kDa EphB1 and EphA2, both of which are expressed in each system.

[9] = molecular target: T2, EphA2 (Homo sapiens, UniProt P29317); assay: EphA2 tyrosine phosphorylation in endothelial cells; assay type: cell-based; conditions: in each cell type (HRMEC, HUVEC)
T2 construct: 130 kDa EphB1 and EphA2, both of which are expressed in each system; endogenous in cells; host or cells: HRMEC and HUVEC
Experimental: as §2

tyrosine phosphorylation of 130 kDa EphB1 [7] | tyrosine phosphorylation of 130 kDa EphA2 [9] | Molecule | capillary-like assembly of HUVEC (reference 8) [1] | assembly of HRMEC into capillary-like structures (reference 8) [2] | surface expression of HEK293 α5β1 integrin [3] | capillary-like assembly of HRMEC [4] | attachment to fibrinogen of HEK293 cells transiently expressing EphB1 ([5]; 48 hours after transfection) | attachment to fibrinogen or RGD peptide of untransfected HEK293 cells ([5]; basal conditions, no endogenous EphB1 or EphB2) | surface expression of endothelial αvβ3 integrin [6] | capillary-like assembly of HUVEC [8]
promoted |  | Ephrin-B1: transmembrane ligand of EphB subclass receptors (protein) LAKNLEPVSWSSLNPKFLSGKGLVIYPKIGDKLDIICPRAEAGRPYEYYKLYLVRPEQAAACSTVLDPNVLVTCNRPEQEIRFTIKFQEFSPNYMGLEFKKHHDYYITSTSNGSLEGLENREGGVCRTRTMKIIMKVGQDPNAVTPEQLTTSRPSKEADNTVKMATQAPGSRGSLGDSDGKHETVNQEEKSGPGASGGSSGDPDGFFNSK | not responsive | promotes | did not increase | promoted | increases in attachment | no ephrin-B1 dependent change | did not increase | not
 | promoted | ephrin-A1: GPI-linked membrane protein, primary ligand for EphA2 (Eck) (protein) DRHTVFWNSSNPKFRNEDYTIHVQLNDYVDIICPHYEDHSVADAAMEQYILYLVEHEEYQLCQPQSKDQVRWQCNRPSAKHGPEKLSEKFQRFTPFTLGKEFKEGHSYYYISKPIHQHEDRCLRLKVTVSGKITHSPQAHDNPQEKRLAADDPEVRVLHSIGHS | promotes | no capillary-assembly activity |  | not |  |  |  | promoted
